Reference: patent US7608262

Biological target: recombinant human TNF (human) (UniProt P01375)
Experiment: binding assays of cA2 and recombinant human TNF (format not described)

Sequence of UniProt P01375 (P01375 77-233 limits assumed): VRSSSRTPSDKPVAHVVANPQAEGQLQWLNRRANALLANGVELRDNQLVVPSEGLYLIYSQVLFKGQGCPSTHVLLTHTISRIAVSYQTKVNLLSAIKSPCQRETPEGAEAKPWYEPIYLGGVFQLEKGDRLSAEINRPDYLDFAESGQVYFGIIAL

Ka: 1.8e+09 M⁻¹
Substance: chimeric A2 (cA2) anti-TNF monoclonal antibody
